Target: T1, IKZF3 136-180 and 236-249-tagged avian myelocytomatosis viral oncogene (MYC) homolog (Homo sapiens, UniProt Q96SW2+Q9UKT9, DEL181-196/S197T)
T1 construct: expressed in transfected cells; host or cells: HEK293T
Assay: Western blot of IKZF3-tagged MYC in HEK293T cells
Format: cell-based
Details: tag fused to N-terminus of MYC; lenalidomide 4 hours

T1 sequence (Q96SW2 whole entry, stated change not applied, one chain of several): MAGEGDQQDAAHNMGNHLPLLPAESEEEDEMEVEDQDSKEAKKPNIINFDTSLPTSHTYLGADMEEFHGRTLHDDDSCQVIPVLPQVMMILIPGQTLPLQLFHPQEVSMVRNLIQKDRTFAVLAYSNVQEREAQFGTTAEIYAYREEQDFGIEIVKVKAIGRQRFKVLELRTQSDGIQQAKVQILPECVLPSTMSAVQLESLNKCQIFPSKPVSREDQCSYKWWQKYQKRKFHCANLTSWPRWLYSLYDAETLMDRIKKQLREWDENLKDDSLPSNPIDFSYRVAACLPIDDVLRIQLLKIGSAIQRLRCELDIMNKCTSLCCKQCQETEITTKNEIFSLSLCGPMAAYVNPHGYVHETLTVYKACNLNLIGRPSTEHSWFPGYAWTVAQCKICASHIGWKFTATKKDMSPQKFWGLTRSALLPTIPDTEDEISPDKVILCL

Substance: IKZF3 136-180 and 236-249: IKZF3-based degradation tag with amino acid residues 136-180 and 236-249 of human IKZF3, SEQ ID NO: 3 (HKRSHTGERPFQCNQCGASFTQKGNLLRHIKLHTGEKPFKCHLCNTASAEARHIKAEMG; source: /note="Description of Unknown: IKZF3 sequence")
- ability of the tag to mediate lenalidomide-dependent degradation of MYC: mediated the lenalidomide-dependent degradation of tagged MYC
